Data taken from patent publication US7189515.

Target: T1, mature human interleukin-8 with C-terminal hexahistidine (human, UniProt P10145 21-99, biotin-XX (NHS ester labelling) in the affinity determination of Example 21; unlabelled in Examples 27 and 34)
T1 construct: mature; also called IL-8; IL8
T1 sequence: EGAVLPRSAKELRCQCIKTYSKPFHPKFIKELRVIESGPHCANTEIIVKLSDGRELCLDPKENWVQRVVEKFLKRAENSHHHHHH
Experiment: BIACORE two-site assay, blank-subtracted; IL-8 held by primary antibody (competitor) M1-10
Description: A BIACORE® 3000 instrument (Biacore AB, Uppsala, Sweden) was used to measure the epitope binding.
Each antibody was diluted to 100 µg/mL and the IL-8 was diluted to 1 µM in 10 mM N-2-hydroxyethylpiperazine-N'-2-ethane-sulfonic acid, 150 mM sodium chloride, 3 mM EDTA, 0.005% polysorbate 20, pH 7.4 (HBS-EP, Biacore AB, Uppsala, Sweden). […] IL-8 (10 µL) was then bound to the primary antibody in all 4 channels. One secondary antibody (10 µL) was passed through one channel each. The resonance units of the secondary antibodies were measured 20 seconds after the injection was over. Blank resonance unit values for each primary/secondary antibody combination were obtained by injecting HBS-EP instead of IL-8 and these were subtracted from the resonance units measured for the corresponding primary/secondary antibody pairing that was contacted with IL-8. Blocking antibody injections were not done.

Row | Binder | Resonance Units [RU]
1 | M1-10 (Fab, also called monoclonal human antibody M1-10; M1_10H) heavy: QVQLVQSGGGLVHPGGSLRLSCEGSGFIFRNHPIHWVRQAPGKGLEWVSVSGIGGDTYYADSVKGRFSISRDNAKNSLYLQMNSLRAEDMAVYYCAREYYYGSGSYRVDYYYYGMDVWGQGTTVTVSSASTKGPSVFPLAPSSKSTSGGTAALGCLVKDYFPEPVTVSWNSGALTSGVHTFPAVLQSSGLYSLSSVVTVPSSSLGTQTYICNVNHKPSNTKVDKKAEPKSHHHHHH light: not shown | -17
2 | M1-21 (Fab, also called monoclonal antibody M1-21; M1_21H) heavy: QVQLVQSGGGVVQPGKSLRLSCAASGFTFSYYGMHWVRQVPGKGLEWVAAVWYDGSTTYSPDSVKGRFTISRDDSKNTLYLQMSSLRAEDTAVYYCARDRVGLFDYWGQGTLVTVSSASTKGPSVFPLAPSSKSTSGGTAALGCLVKDYFPEPVTVSWNSGALTSGVHTFPAVLQSSGLYSLSSVVTVPSSSLGTQTYICNVNHKPSNTKVDKKAEPKSHHHHHH light: not shown | 706
